Residue numbers refer to the chain shown, from its start. Non-standard residues stand in square brackets, D forms with d. No end group written: not given here. αMeL = CC(C)C[C@](C)(N)C(=O)O; Aib = CC(C)(N)C(=O)O
T1: human GIP receptor (human) (UniProt P48546)
T1 sequence (looked up): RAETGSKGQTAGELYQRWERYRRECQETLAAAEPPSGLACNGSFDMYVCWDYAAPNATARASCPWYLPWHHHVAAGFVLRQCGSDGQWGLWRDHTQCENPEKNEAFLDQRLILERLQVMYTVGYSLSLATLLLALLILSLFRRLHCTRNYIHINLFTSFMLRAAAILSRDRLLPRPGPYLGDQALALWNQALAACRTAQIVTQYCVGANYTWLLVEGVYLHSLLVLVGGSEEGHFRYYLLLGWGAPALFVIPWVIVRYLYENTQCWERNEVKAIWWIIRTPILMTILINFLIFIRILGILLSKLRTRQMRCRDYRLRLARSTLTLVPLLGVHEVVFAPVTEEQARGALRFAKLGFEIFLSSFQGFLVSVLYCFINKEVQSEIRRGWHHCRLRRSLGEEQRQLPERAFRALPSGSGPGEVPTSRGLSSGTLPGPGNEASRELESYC

B1: Example 239 (peptide)
chain: YXQGTFTSDFSXXLDKKAQXAFIEYLLEXGPSSGXPPPSGS
modifications: Aib, Orn, alpha-methyl-Leu, lipidated Lys, C-terminal amide; synthetic construct; SITE 2: note = 2-Aminoisobutyric Acid; SITE 12: note = L-ornithine; SITE 13: note = alpha-methyl-leucine; SITE 17: note = Lysine is chemically modified through conjugation of the epsilon-amino group of the Lysine side chain with (2-[2-(2-Amino-ethoxy)-ethoxy]-acetyl)-(gamma-Glu)
B2: Example 254 (peptide)
chain: B1 chain with X29A
modifications: synthetic construct; SITE 2: note = 2-Aminoisobutyric Acid; SITE 12: note = L-ornithine; SITE 13: note = alpha-methyl-leucine; SITE 17: note = Lysine is chemically modified through conjugation of the epsilon-amino group of the Lysine side chain with (2-[2-(2-Amino-ethoxy)-ethoxy]-acetyl)2-(gamma-Glu)
B3: Example 255 (peptide)
chain: B1 chain with X29A, X35H, S41H
modifications: synthetic construct; SITE 2: note = 2-Aminoisobutyric Acid; SITE 12: note = L-ornithine; SITE 13: note = alpha-methyl-leucine; SITE 17: note = Lysine is chemically modified through conjugation of the epsilon-amino group of the Lysine side chain with (2-[2-(2-Amino-ethoxy)-ethoxy]-acetyl)2-(gamma-Glu)
B4: Example 276 (peptide)
chain: B1 chain with X35A, S41T
modifications: synthetic construct; SITE 2: note = 2-Aminoisobutyric Acid; SITE 12: note = L-ornithine; SITE 13: note = alpha-methyl-leucine; SITE 17: note = Lysine is chemically modified through conjugation of the epsilon-amino group of the Lysine side chain with (gamma-Glu)-(2-[2-(2-Amino-ethoxy)-ethoxy]-acetyl)
B5: Example 279 (peptide)
chain: B1 chain with X35A, S41X
modifications: synthetic construct; SITE 2: note = 2-Aminoisobutyric Acid; SITE 12: note = L-ornithine; SITE 13: note = alpha-methyl-leucine; SITE 17: note = Lysine is chemically modified through conjugation of the epsilon-amino group of the Lysine side chain with (2-[2-(2-Amino-ethoxy)-ethoxy]-acetyl)-(gamma-Glu)
B6: Example 278 (peptide)
chain: B1 chain with X35A, S41T
modifications: synthetic construct; SITE 2: note = 2-Aminoisobutyric Acid; SITE 12: note = L-ornithine; SITE 13: note = alpha-methyl-leucine; SITE 17: note = Lysine is chemically modified through conjugation of the epsilon-amino group of the Lysine side chain with (2-[2-(2-Amino-ethoxy)-ethoxy]-acetyl)-(gamma-Glu)
B7: Example 31 (peptide)
chain: YXQGTFTSDFSKXLDKKAQXAFIEYLLAGGPSSGEPPPGEG
modifications: Lys acylated; non-natural residues; C-amide; synthetic construct; SITE 2: note = 2-Aminoisobutyric Acid; SITE 13: note = alpha-methyl-leucine; SITE 17: note = Lysine is chemically modified through conjugation of the epsilon-amino group of the Lysine side chain with (2-[2-(2-Amino-ethoxy)-ethoxy]-acetyl)-(gamma-Glu)-CO-(CH2) 18-CO2H; SITE 20: n
B8: Example 250 (peptide)
chain: B1 chain with Y25W, X29G, X35A, S39T
modifications: synthetic construct; SITE 2: note = 2-Aminoisobutyric Acid; SITE 12: note = L-ornithine; SITE 13: note = alpha-methyl-leucine; SITE 17: note = Lysine is chemically modified through conjugation of the epsilon-amino group of the Lysine side chain with (2-[2-(2-Amino-ethoxy)-ethoxy]-acetyl)-(gamma-Glu)
B9: Example 74 (peptide)
chain: B1 chain with X35A
modifications: synthetic construct; SITE 2: note = 2-Aminoisobutyric Acid; SITE 12: note = L-ornithine; SITE 13: note = alpha-methyl-leucine; SITE 17: note = Lysine is chemically modified through conjugation of the epsilon-amino group of the Lysine side chain with (2-[2-(2-Amino-ethoxy)-ethoxy]-acetyl)-(gamma-Glu)
B10: Example 85 (peptide)
chain: B1 chain with E28A, X29G, X35A, S41D
modifications: synthetic construct; SITE 2: note = 2-Aminoisobutyric Acid; SITE 12: note = L-ornithine; SITE 13: note = alpha-methyl-leucine; SITE 17: note = Lysine is chemically modified through conjugation of the epsilon-amino group of the Lysine side chain with (2-[2-(2-Amino-ethoxy)-ethoxy]-acetyl)-(gamma-Glu)
B11: Example 86 (peptide)
chain: B1 chain with E28A, X29G, X35A, S41E
modifications: synthetic construct; SITE 2: note = 2-Aminoisobutyric Acid; SITE 12: note = L-ornithine; SITE 13: note = alpha-methyl-leucine; SITE 17: note = Lysine is chemically modified through conjugation of the epsilon-amino group of the Lysine side chain with (2-[2-(2-Amino-ethoxy)-ethoxy]-acetyl)-(gamma-Glu)
B12: Example 90 (peptide)
chain: YXQGTFTSDFSXXLDKKAQXAFIEYLLAGGPSSGAPPPSGSE
modifications: synthetic construct; SITE 2: note = 2-Aminoisobutyric Acid; SITE 12: note = L-ornithine; SITE 13: note = alpha-methyl-leucine; SITE 17: note = Lysine is chemically modified through conjugation of the epsilon-amino group of the Lysine side chain with (2-[2-(2-Amino-ethoxy)-ethoxy]-acetyl)-(gamma-Glu)

Target: hGLP-1R (Homo sapiens, UniProt P43220)
Sequence (P43220 24-463): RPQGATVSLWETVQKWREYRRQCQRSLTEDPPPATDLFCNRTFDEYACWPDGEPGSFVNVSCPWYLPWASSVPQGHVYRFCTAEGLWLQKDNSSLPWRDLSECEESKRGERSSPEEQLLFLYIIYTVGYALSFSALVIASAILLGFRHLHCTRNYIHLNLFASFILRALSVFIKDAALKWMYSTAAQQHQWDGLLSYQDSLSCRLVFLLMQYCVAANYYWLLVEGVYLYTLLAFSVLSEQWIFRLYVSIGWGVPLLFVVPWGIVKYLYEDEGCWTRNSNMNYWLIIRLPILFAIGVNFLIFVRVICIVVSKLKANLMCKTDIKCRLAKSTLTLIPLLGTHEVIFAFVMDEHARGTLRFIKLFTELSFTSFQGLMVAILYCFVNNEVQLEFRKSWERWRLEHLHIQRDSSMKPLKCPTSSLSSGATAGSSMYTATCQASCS
Assay: cell-based or functional assay

In order of rising Relative cAMP EC50:
1. B3  1.9 nM
2. B8  2.08 nM
3. B7  2.16 nM
4. B4  2.61 nM
5. B1  2.9 nM
6. B2  3.08 nM
7. Y[Aib]QGTFTSDFSK[αMeL]LDKKAQQAFIEYLLA[Aib]GPSSGAPPPSEG-NH2 (not fully specified (residue 17)) [Example 30]  3.18 nM
8. B6  4.11 nM
9. B5  5.77 nM

Work on B1 yielded a cAMP Rel EC50, nM (1% HSA) of 419 nM.

In order of rising cAMP Rel EC50 (in the presence of 1% HSA):
1. B4  103 nM
2. B8  194 nM
3. B6  241 nM
4. B2  265 nM
5. B3  272 nM
6. B5  367 nM
7. B7  737 nM
8. Y[Aib]QGTFTSDFSK[αMeL]LDKKAQQAFIEYLLA[Aib]GPSSGAPPPSEG-NH2 (not fully specified (residue 17)) [Example 30]  806 nM

Target: human glucagon receptor (human) (UniProt P47871)
Sequence (P47871 26-477): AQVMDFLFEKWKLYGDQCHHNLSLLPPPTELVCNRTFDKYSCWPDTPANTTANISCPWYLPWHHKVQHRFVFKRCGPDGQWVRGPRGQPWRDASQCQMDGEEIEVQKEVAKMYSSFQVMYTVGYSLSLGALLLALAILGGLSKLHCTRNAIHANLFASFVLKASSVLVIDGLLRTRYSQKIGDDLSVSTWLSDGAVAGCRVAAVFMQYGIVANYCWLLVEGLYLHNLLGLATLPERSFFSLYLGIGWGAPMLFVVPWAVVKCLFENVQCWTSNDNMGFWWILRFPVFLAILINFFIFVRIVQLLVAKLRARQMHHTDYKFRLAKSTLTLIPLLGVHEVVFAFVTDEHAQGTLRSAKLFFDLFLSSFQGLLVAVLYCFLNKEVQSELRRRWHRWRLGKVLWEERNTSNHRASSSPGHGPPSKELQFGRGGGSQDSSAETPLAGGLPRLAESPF
Assay: cell-based or functional assay

In order of falling Relative cAMP EC50:
1. B7  8.42 nM
2. B3  5.48 nM
3. Y[Aib]QGTFTSDFSK[αMeL]LDKKAQQAFIEYLLA[Aib]GPSSGAPPPSEG-NH2 (not fully specified (residue 17)) [Example 30]  5.22 nM
4. B5  5.06 nM
5. B2  4.9 nM
6. B6  4.45 nM
7. B8  3.81 nM
8. B4  2.82 nM
9. B1  2.14 nM

Work on B1 yielded a cAMP Rel EC50, nM (1% HSA) of 693 nM.

In order of falling cAMP Rel EC50 (in the presence of 1% HSA):
1. B7  1750 nM
2. Y[Aib]QGTFTSDFSK[αMeL]LDKKAQQAFIEYLLA[Aib]GPSSGAPPPSEG-NH2 (not fully specified (residue 17)) [Example 30]  969 nM
3. B3  883 nM
4. B2  767 nM
5. B5  427 nM
6. B6  274 nM
7. B8  201 nM
8. B4  113 nM

Target: T1, human GIP receptor (human)
Assay: cell-based or functional assay

In order of rising Relative cAMP EC50:
1. B1  0.0503 nM
2. B4  0.0708 nM
3. B6  0.0963 nM
4. B5  0.105 nM
5. B3  0.107 nM
6. B2  0.121 nM
7. B8  0.154 nM
8. Y[Aib]QGTFTSDFSK[αMeL]LDKKAQQAFIEYLLA[Aib]GPSSGAPPPSEG-NH2 (not fully specified (residue 17)) [Example 30]  0.247 nM
9. B7  0.249 nM

B1 gave a cAMP Rel EC50, nM (1% HSA) of 12 nM.

In order of rising cAMP Rel EC50 (in the presence of 1% HSA):
1. B4  6.28 nM
2. B6  7.69 nM
3. B5  11.6 nM
4. B8  11.7 nM
5. B2  21.4 nM
6. B3  21.9 nM
7. B7  63.6 nM
8. Y[Aib]QGTFTSDFSK[αMeL]LDKKAQQAFIEYLLA[Aib]GPSSGAPPPSEG-NH2 (not fully specified (residue 17)) [Example 30]  72.9 nM

Target: human GLP1-R (SNAP-GLP-1R expressed in HEK293 cells) (human) (UniProt P43220)
Sequence (P43220 24-463): as the sequence (P43220 24-463) above
Assay: cell-based or functional assay

In order of rising GLP1R Internalization EC50:
1. B11  57.8 nM
2. Y[Aib]QGTFTSDFSK[αMeL]LDKKAQQAFIEYLLA[Aib]GPSSGAPPPSEG-NH2 (not fully specified (residue 17)) [Example 30]  70.4 nM
3. B12  70.8 nM
4. B9  72.7 nM
5. B7  91.9 nM
6. B10  326 nM

In order of falling Internalization % TOP:
1. Y[Aib]QGTFTSDFSK[αMeL]LDKKAQQAFIEYLLA[Aib]GPSSGAPPPSEG-NH2 (not fully specified (residue 17)) [Example 30]  72.8%
2. B7  67.4%
3. B9  53.3%
4. B11  52.5%
5. B12  49.8%
6. B10  48.3%

Target: human GLP-1R (SNAP-GLP-1R expressed in HEK293 cells) (human) (UniProt P43220)
Sequence (P43220 24-463): as above
Assay: cell-based or functional assay

In order of falling GLP1R Internalization EC50:
1. B6  251 nM
2. B4  237 nM
3. B5  115 nM
4. B8  97 nM
5. B1  72.6 nM
6. B3  47.1 nM
7. B2  31.9 nM

In order of rising Internalization % TOP:
1. B5  37.5%
2. B1  42.9%
3. B8  45%
4. B2  47.8%
5. B3  51.8%
6. B4  68.4%
7. B6  68.6%

From patent US20240270821A1, “GIP/GLP1/GCG TRI-RECEPTOR AGONISTS AND USES THEREOF” (priority 2023, published 2024)
